From US9115185

How the values were obtained:
[1] = target: HLA-DR2 (DRB1*0201 [sic]), purified from B-lymphoblastic cell line IWB (human); test: competition with fluorescent HA308-319 on purified HLA-DR2
[2] = target: HLA-DR1 (DRB*0101), purified from B-lymphoblastic cell line LG2.1 (human); test: competition with fluorescent HA308-319 on purified HLA-DR1

Substance	IC50 [1]	IC50 [2]
HPV16 E2 peptide 271-300	65 µM	22 µM
HPV16 E2 peptide 331-365	20 µM	8 µM
HPV16 E2 peptide 286-315		8 µM
HPV16 E2 peptide 301-330	8 µM	6 µM
HPV16 E2 peptide 316-345	55 µM	6 µM
